Test results taken from the Immune Epitope Database (IEDB).

Experiments:
HLA-B*57:01 [1] = assay: IEDB peptide-MHC binding, purified MHC/competitive/radioactivity; filed as Kd, often an IC50 or EC50 that approximates it; ≥ and ≤ were set here for values at or beyond the usual limits of such assays
HLA-B*58:01 [2] = assay: as above
HLA-B*53:01 = assay: as above; conditions: source organism: Dengue virus 3 Sri Lanka/1266/2000
HLA-A*03:01 [3] = assay: as above; conditions: source organism: Dengue virus 1 Singapore/S275/1990
HLA-A*11:01 = assay: as above; conditions: source organism: Dengue virus 1 Singapore/S275/1990
HLA-A*32:01 = assay: as above
HLA-B*15:01 = assay: as above
HLA-B*15:03 = assay: as above
HLA-A*30:01 = assay: as above
HLA-B*08:01 = assay: as above
HLA-B*57:01 [4] = assay: IEDB peptide-MHC binding, purified MHC/competitive/fluorescence; filed as Kd, often an IC50 or EC50 that approximates it; ≥ and ≤ were set here for values at or beyond the usual limits of such assays
HLA-B*39:01 = assay: as above
HLA-A*69:01 = assay: as above
HLA-B*51:01 = assay: as above
HLA-B*27:03 = assay: as above
HLA-B*46:01 = assay: as above
HLA-B*18:01 = assay: as above
HLA-A*02:01 = assay: as above
HLA-A*68:02 = assay: IEDB peptide-MHC binding, purified MHC/direct/fluorescence; filed as Kd, often an IC50 or EC50 that approximates it; ≥ and ≤ were set here for values at or beyond the usual limits of such assays; conditions: source organism: Orthohantavirus andesense
HLA-A*02:16 = assay: as above
HLA-A*02:11 = assay: as above
HLA-A*02:19 = assay: as above
HLA-A*26:01 = assay: as above
HLA-A*03:01 [5] = assay: as above
HLA-A*02:12 = assay: as above
HLA-A*02:03 = assay: as above
HLA-B*15:17 [6] = assay: IEDB peptide-MHC binding, purified MHC/competitive/fluorescence; filed as Kd, often an IC50 or EC50 that approximates it; ≥ and ≤ were set here for values at or beyond the usual limits of such assays; conditions: source organism: Araucaria virus
HLA-B*57:01 [7] = assay: IEDB peptide-MHC binding, purified MHC/direct/fluorescence; filed as Kd, often an IC50 or EC50 that approximates it; ≥ and ≤ were set here for values at or beyond the usual limits of such assays; conditions: source organism: Brucella suis 1330
HLA-B*58:01 [8] = assay: as above; conditions: source organism: Brucella suis
HLA-B*15:17 [9] = assay: as above; conditions: source organism: Brucella suis
[10] = source organism: Dengue virus 3 Sri Lanka/1266/2000
[11] = source organism: Vaccinia virus WR
[12] = source organism: Orthohantavirus andesense
[13] = source organism: Dengue virus 4 Philippines/H241/1956
[14] = source organism: Araucaria virus
[15] = source organism: Dengue virus 3 Martinique/1243/1999
[16] = source organism: Vaccinia virus Copenhagen

## AAVEDEEFW
HLA-B*57:01 [1]; [10]
  Kd: 1.1 µM
HLA-B*58:01 [2]; [10]
  Kd: 0.00441 µM
HLA-B*53:01
  Kd: 0.0107 µM

## ASSMVNGVVK
HLA-B*58:01 [2]; source organism: Dengue virus 1 Singapore/S275/1990
  Kd: 2.79 µM
HLA-A*03:01 [3]
  Kd: 0.325 µM
HLA-A*11:01
  Kd: 0.0304 µM

## AVAKYFSPL
HLA-A*32:01; [11]
  Kd: 0.283 µM
HLA-B*15:01; [11]
  Kd: 0.016 µM
HLA-B*15:03; [11]
  Kd: 0.235 µM
HLA-A*30:01; [11]
  Kd: 8.98 µM
HLA-B*08:01; [11]
  Kd: 0.189 µM

## AVEDFLAFF
HLA-B*57:01 [4]; [12]
  Kd: ≥ 20 µM
HLA-B*39:01; [12]
  Kd: ≥ 20 µM
HLA-A*69:01; [12]
  Kd: ≥ 20 µM
HLA-B*51:01; [12]
  Kd: ≥ 20 µM
HLA-B*27:03; [12]
  Kd: ≥ 20 µM
HLA-B*46:01; [12]
  Kd: ≥ 20 µM
HLA-B*18:01; [12]
  Kd: ≥ 20 µM
HLA-A*02:01; [12]
  Kd: ≥ 20 µM
HLA-A*68:02
  Kd: ≥ 20 µM
HLA-A*02:16; [12]
  Kd: ≥ 20 µM
HLA-A*02:11; [12]
  Kd: ≥ 20 µM
HLA-A*02:19; [12]
  Kd: ≥ 20 µM
HLA-A*26:01; [12]
  Kd: 1.39 µM
HLA-A*03:01 [5]; [12]
  Kd: ≥ 20 µM
HLA-A*02:12; [12]
  Kd: ≥ 20 µM
HLA-A*02:03; [12]
  Kd: ≥ 20 µM

## AVFQEEQGW
HLA-B*57:01 [1]; [13]
  Kd: 0.034 µM

## FKAMWKYPF
HLA-B*15:03; [11]
  Kd: 0.000109 µM

## FTRCAVIPF
HLA-B*15:03; [11]
  Kd: 0.0054 µM

## GVPELGAFF
HLA-B*57:01 [4]; [14]
  Kd: ≥ 20 µM
HLA-B*39:01; [14]
  Kd: ≥ 20 µM
HLA-A*69:01; [14]
  Kd: ≥ 20 µM
HLA-B*15:17 [6]
  Kd: ≥ 20 µM
HLA-B*51:01; [14]
  Kd: ≥ 20 µM
HLA-B*27:03; [14]
  Kd: ≥ 20 µM
HLA-B*46:01; [14]
  Kd: ≥ 20 µM
HLA-B*18:01; [14]
  Kd: ≥ 20 µM
HLA-A*02:01; [14]
  Kd: ≥ 20 µM
HLA-A*02:16; [14]
  Kd: ≥ 20 µM
HLA-A*02:11; [14]
  Kd: ≥ 20 µM
HLA-A*02:19; [14]
  Kd: ≥ 20 µM
HLA-A*26:01; source organism: Itapua hantavirus
  Kd: 0.207 µM
HLA-A*03:01 [5]; [14]
  Kd: ≥ 20 µM
HLA-A*02:12; [14]
  Kd: ≥ 20 µM
HLA-A*02:03; [14]
  Kd: ≥ 20 µM

## HVKSTLNNA
HLA-A*32:01; [11]
  Kd: ≥ 41.7 µM
HLA-B*15:01; [11]
  Kd: 0.366 µM
HLA-B*15:03; [11]
  Kd: 0.376 µM
HLA-A*30:01; [11]
  Kd: 0.00115 µM
HLA-B*08:01; [11]
  Kd: 1.53 µM

## IARISALGF
HLA-B*57:01 [7]
  Kd: 0.088 µM
HLA-B*58:01 [8]
  Kd: 14 µM
HLA-B*15:17 [9]
  Kd: 0.0036 µM

## IASLPTYLSS
HLA-B*58:01 [2]; [13]
  Kd: ≥ 36.3 µM

## IASSGMLWMA
HLA-B*57:01 [1]; [15]
  Kd: 10.4 µM
HLA-B*58:01 [2]; [15]
  Kd: 1.02 µM

## IHFMREYWF
HLA-A*32:01; [16]
  Kd: 12.4 µM
HLA-B*15:01; [16]
  Kd: 6.91 µM
HLA-B*15:03; [16]
  Kd: 0.222 µM
HLA-A*30:01; [16]
  Kd: 0.0449 µM
HLA-B*08:01; [16]
  Kd: 8.05 µM

## IKYACKQIL
HLA-A*32:01; [11]
  Kd: 10.7 µM
HLA-B*15:01; [11]
  Kd: 6.87 µM
HLA-B*15:03; [11]
  Kd: 0.252 µM
HLA-A*30:01; [11]
  Kd: 2.11 µM
HLA-B*08:01; [11]
  Kd: 8.67 µM
